From the DeepSol protein solubility set

Assay: soluble on expression in E. coli; label from the status in PepcDB or PDB records
With “MRTALLQNLFSLFPFDLHGDCDVPPARDGIRVSCIINFYGRLNVLAGILWSLAQQDFPRSAFEVILVEDRGGSDEGRALAEEFSSRLPIVYAPLDKQYGLMGYSRNFGLERSRGEFILFLDDDTIILQDDFLKTMVAYFDAQPGVSAIMPHGEASFAFVDDRYDFHDPFFMTSRCTAYRRTVLASLGGFMSSFIGQEDVEFVIRFHAAGNRCAAVPQLAYRHPPLYVTNLGKPMAVGSSFYGIRKRYPLVTWLLAVVNCSRHLPLVLAPSRKYREMGRFGLGFLWGVLTAPFRSGSLNYRLEHHHHHH” the “soluble on expression in E. coli” value was “not soluble”. In the case of “MELSSPGVGSGLDVKNLVDAIVTAEITPSQVRHDKQLNSVNTELSALGQLKSYLTNLQTSLAKLSSLSQFYTMKSTISDPNYFSATLGTGATKNTYQIEIQKLAQQHS”, the “soluble on expression in E. coli” value is reported as “not soluble”. With “MQSPEKIDPTWEDSVIDSFISFVRSYDGDFTCIYKLADTVSDEYSLQKIIDFLSSTPQGKQAFQKRPQLGVVDLPKLHQLPTDTLGYVYADQMLQNNLQPLQSHEIDNDYQFFKTHITETHDLWHIVTGADTSILGEIQLEAFYVSQLYASRFWLALLAKNLLKAVIYDIELSTPYMDAISTGWVMAKQAKPLFGLEWNLLWEKPLADVRTSLNIILPVNLEHHHHHH” the “soluble on expression in E. coli” value was “soluble”. With “KVNMDLRANLKQVKKEDTEKEKDLRDVGDWRKNIEEKSGMEGRKKMFEAGES” the “soluble on expression in E. coli” value was “soluble”. For “MAHHHHHHMESAIGLSVPLYQPHAPAPGAVIDPDMVEDHVSFLRTVRAFHDYKRQALAAREMRCTNFRKLQDQHRHLLCIDLDKILEKYLECIKVNSAFFDAICEASEELFDSYWPEGTTVFMKEVPPPTPLDMNKVFSTLRQFVRDWSAEGVAERDCVYKPILDTLDRCFPNRSERENVRVLIPGAGLCRLSVELALHGFFAQANEFSYHMLIAGHYIQNHVFESCQHKIYPYSDSTCNLVNRADQFAEVQIPDLCASEAIDALRDKGLSFGQLSMVAGDFTEVYAKPHQHKTWSVVATCFFIDTAHNIIEYLVIIYNLLVPGGYWVNVGPLLYHFADSADDMSIELSLGEVLTVAQRIGFVLNGPPSFIDTTYTNNQRSMKQLVYRCAFFVLQRPLADRQTEQMDRNVEAKVT”, the “soluble on expression in E. coli” value was “not soluble”. For “MGSDKIHHHHHHMNLKKVVNEIRNFEGILRKIAIKDVVETFDFNDEDYEFDIIVDFGDDAAVIGIDGDNAILLAADGIWGKLLEADPWWAGYCSVLVNCKDIAAMGGKCVGMTNIISIKDKDICREVLKGVKDGVKKFGVPMVGGHTHPDAMCNVLDVSITGIAKKDCILRSDNAKIGDKIIFAYDLVGQIYKSFPLNWDTTTMKSKKLVRAQMDALVQIAENKLANSCKDISNPGAIGTLGMLLEVSRKGGVVDITKIPKPEEIDLIHWLKVYPGSGYVLTAKEENFKEIKDIFEDVEMTAEICGEVIAEKKLYITDGENKEVVFDFEKEFICGC”, the “soluble on expression in E. coli” value was “not soluble”. With “MGSDKIHHHHHHMVRQFLPLNGLRAFEASARHLSFTRAAIELCVTQAAVSQQVKGLEKRLGVALFQRLPRGLKITAEGEALLPTVTSSFDQMATTLDRIEAGQVRELLFLGVVGTFAVGWLLPRLAAFQKRHPFIDVRVSTNNNRVDMAAEGLDFAIRFGQGSWHGTDAFRLFEAPLSPLCTPKLAEMLKEPADLMDATLLRSYRADEWSTWFAAAGVSPAAQVNAGIVFDTSLGMMEAALQGLGVALAPPSMFSRHLTSGAVMQPFPVTISLGSYWLTRLQSKPQTSAMQAFSDWLLETIGTA” the “soluble on expression in E. coli” value was “not soluble”. With “MGEHKQNLSLQDMTHSDTGQIAYLKKVCTDDLAKNFPDLPPMTPGITVWALFGETGYPIILSDERSIALAGANEHELQIVTLH” the “soluble on expression in E. coli” value was “not soluble”. For “MGKIIAIANQKGGVGKTTTSVNLGAGLAQVGKKVLLVDIDAQGNATTGVGIEKSELDQCIYNVLVEDADVQGVIQKTATENLDVLPATIQLAGAEIELVPTISREVRLQRALQPVRDEYDYIIIDCPPSLGLLTINALTAADSVIIPVQCEYYALEGLSQLLNTVRLVQKHLNKNLAIQGVLLTMLDARTNLGIQVIDEVKKYFRDKVYRSIIPRNVRLSEAPSHGKPIMQYDAKSRGAEVYIDLAEEVIAGG”, the “soluble on expression in E. coli” value was “not soluble”. For “SLCIDRQLYSAVQNSNRQKHQPLNSYVSLSDENESDHLEGSWSEDPEALIIDQESTRTLEREITKVLSPMENKVLDYYLRGYGYVKIAEIMGKTPKSIDNALQRIRGKIRNFSAPVQK”, the “soluble on expression in E. coli” value was “not soluble”. In the case of “MNIGNITISVIIPVYNASVTLPHCLESLHKQTYRNLELLFVDDCSTDESLYILTSYAEQFAEIDFTIRILQHERNRGVAAARNTALKCATGDYIYYVDADDSIEPHTLECLVNEINHKGLDIVGHEWYLTFNSNARYMKQPAYTTSVEALRKMMGGVMRWNLWLFLVRRSLYVENDIRFTEGLNMGEDMMVMMKLFICAGKVGIVHRPFYHYRQSNPESLTKIYSQEHIIQVANNVYEVEKYVNASAYADSLIEFIPFLKLNIKLPLLITDDKSHYEQWLECFPEANCYVMNNKLLPLRTRIIQWMAVKRYFILLRLYYRTVFKLVYGIIYKLEHHHHHH”, the “soluble on expression in E. coli” value is reported as “not soluble”. In the case of “MGLDISDETLKIQKKKENENRVIILMIPGNPGNEGFYAHFGREVLQNLIKKDEDEQKNLKNQYLFYTVSSLNHVRMPDHLKDDGEHRNHDRISLEEQVNHKLSFVKEHLPRGKQLYILGHSIGSYMMLRIIPEVIKEGFHVEKAVGLFPTIVHMANSPNGKRLHGTLATLNHHDWLTKTICWWVDYLPNSIKKFLVGLNLRHPNTPPEIVDAAVELVHMDVFRNIVHMSNDELDIVLDLDERLLEKQDVVHFYYGLKDGWCPVQHGYSMRDRLGEEQVTLDEDNCEHAFVISEGDIMARNVIKYFD”, the “soluble on expression in E. coli” value is reported as “not soluble”. With “NGLVDSMIKNAIAWQTSHLQIHQSAYLVNPELKDTIPDSQSIVTTLDKHQSVKAVSERFLADGMIASARSSRGIRINGIHLEQEQKITPLSEHIIDGYWLDEEGRNPILVSQKTAKRLKLRVGSKVILTLSDINGDVSGAAFRVKGIFKTPSTTFDDGNVYVRKADLEKIAGIAGAHEIAILLNANDDDVLQNIVSFTRTLTDDGSGKPLTVRTWLEIQPLLSTMMSSMDISNQ” the “soluble on expression in E. coli” value was “not soluble”. With “MTEPKPRARRSGAAPARTRDDQVVDRRRSLLKAAVKVISKRGLTGVTINSIAAEAKCSYGVVAFHFQSKEGIIFAALDHTAAEYEAYLAQLNASQRGPAERIRHMIDTDFSRKAAGHESIALWLAFWAEAARVPSFRQRCAALRVQYNEAVAADVAELAALRGRTVEAEQVALTLNAMISGLWVENLLLPITIAEGQKRGHDASLAYLRLIFPDDF” the “soluble on expression in E. coli” value was “not soluble”. In the case of “QDSTSDLIPAPPLSKVPLQQNFQDNQFHGKWYVVGLAGNRILRDDQHPMNMYATIYELKEDKSYNVTSVISSHKKCEYTIATFVPGSQPGEFTLGNIKSYGDKTSYLVRVVSTDYNQYAVVFFKLAEDNAEFFAITIYGRTKELASELKENFIRFSKSLGLPENHIVFPVPIDQCIDG”, the “soluble on expression in E. coli” value is reported as “soluble”. In the case of “SAFVAALSAAGLPTDAFVFEGFLPTRGKRRLEKLANLKGEQRVVIFYEAPGRLQAALADMREVLGDRHVVVARELTKIHEEFVRGRVSFVAEHFAAVDVKGEVVILVAPAPAP”, the “soluble on expression in E. coli” value is reported as “soluble”. With “MSLDDHTRDPTVKAPDGNPSGWRTDGQWEHETLRRAVVHGVRLYNSGEFHESHDCFEDEWYNYGRGNTESKFLHGMVQVAAGAYKHFDFEDDDGMRSLFRTSLQYFRGVPNDYYGVDLLDVRTTVTNALSDPSALHGWQIRLDGEYPTCRPEDIEFAESLEHEGHHHHHH” the “soluble on expression in E. coli” value was “soluble”. In the case of “MFSPQAYLIFNMRKPPFDNIKVRQAVMHAFNRKLVVDNIFFGLGKISTSPFVPTEMFFDKDIPAIPFDMKKARALIKESGINPGDYTIRQLSFPYGATWDRLGEYTKQALEQLGFKVNVESTDAGGWASRTGNWDFDLTTTYSYQYGDPALGVQRLYVTSNIVKGSPFANMQGYSNPESDKLWEQAAAEVDPAKRQELYNKIQALLVAEVANGFLVDME”, the “soluble on expression in E. coli” value is reported as “not soluble”. For “MGSDKIHHHHHHMLSRFARQLALPVFNGVLHPTRATSSIAHTIKVAHKIDETREKALLGGGKKRVDAQHARGKLTARERIDLLLDRNTFREYDMFAEHTCNDFGMQKEKYPGDSVVTGRGEINGRTVFVFSQDFTVFGGSLSSIHAKKIVKIMREAMLVGAPVIGLNDSGGARIQEGVESLAGYADIFQENVMASGVVPQISMIMGPCAGGAVYSPALTDFTFMVRDTSYLFITGPDVVKAVTNEEVTQEELGGAKTHTVTSGVAHGAFDNDVDALMSLRELFNYLPLSNTDAAPIRAAEDPWDRAVPSLDTVVPLESTAAYNMKDVVHALVDEGDFFEIMPDYAKNLVIGFARMNGRTVGIVGNNPKFAAGCLDINSSVKGARFVRFCDAFNIPIITLVDVPGFLPGTAQEYGGIIRHGAKLLYAFAEATVPKITIITRKAFGGAYDVMSSKHLRGDINYAWPTAEVAVMGAKGAVSILFRNDKEHAVQHEEEYTELFSNPFPAAVRGFVDDIIIPSETRKKVCEDLNMLESKKLKNPWKKHGNIPL”, the “soluble on expression in E. coli” value was “not soluble”. With “MGSDKIHHHHHHMTWTDLKSSLAAEGYVASDDLAVALQLALSLGRPLLLEGAAGVGKTEIARTLSAVRDTRLIRLQCYEGLDAAQAIYEWNYQRQLLTIRAASEAGETGKAVEDRIFSRDFLLERPLLAAITQEMAPVLLIDEIDRADEEFEAYLLEILSDFQVSIPELGTITAVTRPMVVLTSNGTRDLSDALRRRCLYTYVEYPDRTAELAILKARCPDVEARLAEQIIGFVQRLREEELEKTPGVAEMLDFAAALMGLGIADLTDNPAVLQSTLTTLLKTQSDQAQITREVAGRIAVKAA” the “soluble on expression in E. coli” value was “not soluble”. In the case of “MRRGMTGLKTLAQQIALIWKNDPQQFESQAVAVMDAVKNRMPGRAKINVDVFSKLELSLRTSFDLQDGGFSGSPKFFNTPALNYLLERFYETGNEEILNFIGLTLKTISIRGIHDLVNGGFFRYSTDTMWIVPHFEKMLYTQTQLMKLFSKMFMLTRDNVYRDMIYDIKRFMDENLYWPGHGYYSGMDADVDGNEGGYYKWSFQDLKVALGQDFEAFRAIFDISEGGNYMDELYGQTGDNLIYFTGSFDEYRRSIEENGSTDMLSRSIEKLREAEKKRKKPSVDKKILTDLNGLAISSLSWAYRATGDKEFLDSAVSVSEFIIKNMIGDYLLHSFFEGSASVKSSLFDYAFLIRGLIDLYTITFDQKYLEEAKKLADEAIKFLFDGKFKLSEEIDDPQIADSEVESPYATIVADLDDLSLLTEDLQYHQIADQALTSVFDAVSRFPSAFPSLEHHHHHH”, the “soluble on expression in E. coli” value is reported as “not soluble”. For “MAHHHHHHMEHQYFFIEATWLEAAAAGICSRNGIILKDAIAKAEKGIPVQIKNDSAPTMRSLIQTTHASLEQACERYLHQNARNLRLTRASKPTPAVEALNEAERASCRELVVRIAITGALTQYQRCTRKCILQDSSSLSPSLSHPAVSASKTVQGNGVTDKQLERSFQTTLLKGLLYAFESFQECHSMNRDHYPPRVDSNTPGTVGWDTLVLLYLVHRIPQVARHASGSAIDDCIGQVIRTWRKLLVALQSVDAQEAPEHSRRRGALSLVNGLLIILFQRYNTHQCAVLLGAVEHAETVAESSKEPARSILHPSRHMVSEVVTYHYYQGRMRLYERKLDEAHRILRIAYTLLPPAGFGNEPQRLNKERVRFFLSVAGVANGRRIPDEILRADEDLLPRLFGSLTAAIERGDPVCFSAALDSHASTFHRRGVYLILQQAKILCYLMVVARVHAAMAALSDVDNSRITIPTLLAAYTYITSEKPQSGKSSAESKKRSRDDEAVSPVSEARMAESVMDEDRMALWIAKLIARGYVRGYYSHEHKTLVLSKKVPFPLLQEEV”, the “soluble on expression in E. coli” value was “not soluble”. With “MSITHLMRQQVEELFKRFLEKTGLSEEATVYAVFIPKEEEVDEESVDVFEQRVNPKDAESVENFVSRLTKVALENDVKELKLYALVLDRDGETLIIAREENPEADEVIKELIERMKEEV” the “soluble on expression in E. coli” value was “not soluble”.
